According to US20060121042A1 (AstraZeneca / MedImmune, published 2006):

Legend:
r rat EphA5 = target: T1, r rat EphA5 (rat, UniProt P54757); assay: Activity ELISA, receptor coated on the plate, purified IgG, anti-human kappa-HRP
T1 construct: part of an Fc fusion; also called rEphA5; rratEphA5-Fc
Protocol: (§1) Secondary screening of IgG constructs of affinity optimized combinatorial variants with additional EphA receptors: With purified IgG constructs of the nine combinatorial variants, additional secondary screening assays were performed using the Activity ELISA (see above) and recombinant EphA receptor proteins. More precisely, Nunc Maxisorp plates were coated with the following rEphA proteins: rhuEphAl-Fc; 0.5 μg/well, rmuEphA2-Fc; 0.5 μg/well, rmuEphA3-Fc: 0.1 μg/well, rmuEphA4-Fc; 0.1 μg/well, rratEphA5-Fc; 0.5 μg/well, rmuEphA6-Fc; 0.5 μg/well, rmuEphA7-Fc; 0.1 μg/well, rEphA8; 0.2 μg/well (all R&D Systems), rhuEphA2-Fc; 0.5 μg/well, and rhuEphA4-His; 0.1 μg/well (both produced at MedImmune, Inc.). Plates were blocked with 3% BSA+0.1% Tween20 for 2 h. […] Incubation with a goat anti-human kappa horseradish peroxydase (HRP) conjugate then followed. HRP activity was detected with TMB substrate and the reaction quenched with 0.2 M H₂SO₄. Plates were read at 450 nm. Data was analyzed by normalizing Fab concentrations to the corresponding activity data (see FIGS. 12A-12J and 14).

mEphA4 = target: T2, mEphA4 (mouse, UniProt Q03137); assay: ELISA, receptor coated on the plate, purified IgG, anti-human kappa-HRP
T2 construct: part of an Fc fusion; also called rmuEphA4-Fc
T2 sequence (Q03137 20-547 limits assumed): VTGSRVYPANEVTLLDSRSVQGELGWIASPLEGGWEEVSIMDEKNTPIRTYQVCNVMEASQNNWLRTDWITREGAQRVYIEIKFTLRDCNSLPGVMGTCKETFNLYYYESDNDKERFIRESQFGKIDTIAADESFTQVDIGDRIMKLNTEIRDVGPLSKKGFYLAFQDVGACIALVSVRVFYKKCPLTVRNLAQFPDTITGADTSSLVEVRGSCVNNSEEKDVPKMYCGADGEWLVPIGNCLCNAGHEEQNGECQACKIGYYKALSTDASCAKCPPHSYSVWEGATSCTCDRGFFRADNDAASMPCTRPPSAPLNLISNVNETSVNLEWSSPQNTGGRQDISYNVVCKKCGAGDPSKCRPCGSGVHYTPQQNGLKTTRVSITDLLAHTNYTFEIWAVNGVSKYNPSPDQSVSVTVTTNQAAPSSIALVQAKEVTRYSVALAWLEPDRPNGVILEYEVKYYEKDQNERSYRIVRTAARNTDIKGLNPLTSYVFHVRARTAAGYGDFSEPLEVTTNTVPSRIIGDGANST

mEphA7 = target: T3, mEphA7 (mouse, UniProt Q61772); assay: as above
T3 construct: part of an Fc fusion; also called rmuEphA7-Fc
T3 sequence (receptor-Fc fusion, looked up): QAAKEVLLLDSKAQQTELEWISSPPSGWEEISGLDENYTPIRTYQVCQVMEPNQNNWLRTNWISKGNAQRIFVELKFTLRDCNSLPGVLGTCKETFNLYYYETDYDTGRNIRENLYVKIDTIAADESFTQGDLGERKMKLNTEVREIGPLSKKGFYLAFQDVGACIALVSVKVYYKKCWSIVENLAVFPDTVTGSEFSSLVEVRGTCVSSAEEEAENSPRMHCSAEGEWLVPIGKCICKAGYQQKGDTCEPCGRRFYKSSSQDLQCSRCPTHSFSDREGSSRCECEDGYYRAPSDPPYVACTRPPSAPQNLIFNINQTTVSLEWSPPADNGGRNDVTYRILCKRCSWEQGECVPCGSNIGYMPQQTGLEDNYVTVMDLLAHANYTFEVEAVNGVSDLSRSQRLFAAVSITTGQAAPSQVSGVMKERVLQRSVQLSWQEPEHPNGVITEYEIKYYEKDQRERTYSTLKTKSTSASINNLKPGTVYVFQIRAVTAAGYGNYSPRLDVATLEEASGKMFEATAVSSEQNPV

r murine EphA8 = target: T4, r murine EphA8 (mouse, UniProt O09127); assay: Activity ELISA, receptor coated on the plate, purified IgG, anti-human kappa-HRP, OD 450 nm
T4 construct: recombinant soluble protein coated on the plate; also called mEphA8; rEphA8
T4 sequence (receptor construct, looked up): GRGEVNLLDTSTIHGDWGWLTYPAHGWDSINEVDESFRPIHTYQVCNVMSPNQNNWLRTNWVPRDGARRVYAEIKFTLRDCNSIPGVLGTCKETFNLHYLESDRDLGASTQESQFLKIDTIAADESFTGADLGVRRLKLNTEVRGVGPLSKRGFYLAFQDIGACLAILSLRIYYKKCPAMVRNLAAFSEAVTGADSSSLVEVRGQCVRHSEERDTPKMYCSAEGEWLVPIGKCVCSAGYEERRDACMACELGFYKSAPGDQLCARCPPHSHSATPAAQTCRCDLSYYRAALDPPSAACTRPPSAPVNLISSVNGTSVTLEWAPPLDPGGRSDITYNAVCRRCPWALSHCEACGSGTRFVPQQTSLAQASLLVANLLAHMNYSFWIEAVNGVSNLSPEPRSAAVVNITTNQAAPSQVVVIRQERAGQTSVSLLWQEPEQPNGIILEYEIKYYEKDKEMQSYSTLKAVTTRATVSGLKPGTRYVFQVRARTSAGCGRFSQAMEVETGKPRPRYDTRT
Protocol: as §1

r murine EphA7 = target: T5, r murine EphA7 (mouse, UniProt Q61772); assay: activity ELISA, IgG on coated antigen
T5 construct: recombinant Fc fusion (R&D Systems); also called rmuEphA7-Fc; mEphA7
T5 sequence (receptor-Fc fusion, looked up): T3 sequence (receptor-Fc fusion, looked up)

r murine EphA4 = target: T6, r murine EphA4 (mouse, UniProt Q03137); assay: activity ELISA, IgG on coated antigen
T6 construct: recombinant Fc fusion (R&D Systems); also called rmuEphA4-Fc; mEphA4
T6 sequence (Q03137 20-547 limits assumed): as the sequence (Q03137 20-547 limits assumed) above

[1] = target: T7, Human EphA4-Fc fusion protein (human, UniProt P54764 20-547); assay: BIAcore, IgG immobilized on the sensor chip, EphA4-Fc as analyte; comment on the sheet: off-rate below LOD
T7 construct: not shown: Fc portion of a human IgG1
T7 sequence (P54764 20-547): as the sequence (Q03137 20-547 limits assumed) above, with A59P, S121N, G124V, Q250R, N251S, S270T, R378K, S406N counted along it
Protocol: FIG. 15A-15B. […] Binding affinities were measured using the BIAcore assay. […] Variant kinetic measurements for human EphA4 and were obtained using BIAcore with immobilized variant antibodies and human EphA4-Fc and EphA4-His as analytes.

T1 sequence (P54757 27-575 limits assumed): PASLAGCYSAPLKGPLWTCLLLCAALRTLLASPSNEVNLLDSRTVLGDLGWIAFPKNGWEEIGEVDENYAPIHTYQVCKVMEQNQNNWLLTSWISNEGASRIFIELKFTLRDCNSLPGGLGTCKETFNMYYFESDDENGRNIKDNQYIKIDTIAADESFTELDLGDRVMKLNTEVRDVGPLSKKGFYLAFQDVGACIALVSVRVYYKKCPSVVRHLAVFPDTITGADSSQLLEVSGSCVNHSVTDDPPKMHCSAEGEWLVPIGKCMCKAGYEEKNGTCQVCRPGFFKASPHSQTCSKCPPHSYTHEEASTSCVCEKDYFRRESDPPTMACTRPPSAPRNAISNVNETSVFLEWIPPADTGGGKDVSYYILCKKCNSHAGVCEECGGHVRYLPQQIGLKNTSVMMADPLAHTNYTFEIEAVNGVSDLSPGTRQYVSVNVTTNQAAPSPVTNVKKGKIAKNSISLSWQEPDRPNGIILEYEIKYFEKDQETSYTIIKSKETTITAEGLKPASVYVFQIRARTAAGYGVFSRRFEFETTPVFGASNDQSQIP

B1: 3A12 IgG1 (affinity optimized combinatorial variant of mAb GEA44 in human IgG1 format) (antibody, V domains shown)
VH: QVQLLQSGAEVKKPGASVKVPCKASGYTFTSRAMSWVRQAPGQGLEWMGWINTNTGNPTYAQGFTGRFVFSLDTSVSTAYLQISSLKAEDTAVYYCARVRFTVYGDGMDVWGQGTLVTVSS
VL: EIVLTQSPATLSVSPGERATLSCRASQSVSSNLAWYQQKPGQAPRLLIYGASTWATGIPDRFSASGSGTDFTLTISRVEPEDFAVYYCQQYGPSWTFGQGTKVEIK
R rat EphA5
  binding result: binds
mEphA4
  binding result: binds
mEphA7
  binding result: binds
R murine EphA8
  binding result: binds
R murine EphA7
  binding result: binds
R murine EphA4
  binding result: binds
[1]
  Kd: 6 pM
  koff: 8.66e-07 s⁻¹
  kon: 147000 M⁻¹ s⁻¹
